This note sets out measurements from patent US20260055186A1 (REPERTOIRE IMMUNE MEDICINES, published 2026).

The target of test [1] is T1, human CD8 on human T cells (human, UniProt P01732 22-235).
T1 construct: whole, on cells; the antibodies were raised against human CD8 alpha; also called CD8 on human CD8+ T cells; hCD8
Nature of the test: flow cytometry on human CD8+ T cells, titration. Here is the method:
(§1) The 24 humanized 02A01-derived anti-CD8 antibodies (excluding 02A01-VK3(D30E/N35Q)) were screened for their ability to bind human CD8 by evaluating binding to CD8+ T cells. The non-humanized parent (“02-Parent”) and the non-humanized parent comprising a heavy chain M39L liability mutation (“02-Parent-VH-M39L”) were used as controls. […] Cells were washed with 1×phosphate buffered saline (PBS) containing 1 mg/mL bovine serum albumin (PBS/BSA) and then stained with a 1:100 dilution of DyLight650-conjugated anti-human IgG H+L polyclonal antibody (ThermoFisher cat. no. Sa5-10129) in PBS/BSA. Following a 20-30 min incubation at 4° C., the cells were washed once with PBS/BSA, and then resuspended in PBS/BSA for analysis on a FACSCelesta using Diva software (BD Biosciences). The resulting data were analyzed using FlowJo. Data were quantified and reported as Max fluorescence intensity (MFI) of human IgG-Fc. […] Complete replacement of the HCDR1 (antibodies comprising VH5) eliminated binding to the CD8+ T cells.
(§2) Binding to human CD8+ T cells was tested at 7 serial 5-fold dilutions of each tested humanized 02A01 variant (from 50 nM to 3.2 pM). The resulting data were analyzed using FlowJo.
On the technique in general: A flow cytometer gives signals particle by particle.

Test [2] deals with T1, human CD8 on human T cells. Kind of test: flow cytometry on human CD8+ T cells, titration, apparent KD. The method, then:
as §1, §2

T1 sequence (P01732 22-235): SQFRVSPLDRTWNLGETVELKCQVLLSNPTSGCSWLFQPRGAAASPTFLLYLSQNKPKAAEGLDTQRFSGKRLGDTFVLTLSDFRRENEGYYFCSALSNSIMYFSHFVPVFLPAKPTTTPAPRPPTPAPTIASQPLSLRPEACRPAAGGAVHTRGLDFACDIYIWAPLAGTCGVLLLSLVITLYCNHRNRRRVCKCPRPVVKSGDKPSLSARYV

B1: humanized 02A01-VH2-VK3 (antibody, human IgG1, V domains shown)
VH: EVQLVQSGAEVKKPGATLKISCKASGYTFTDFTMHWVQQAPGKGLEWIGLVNPNNGGNIYNQNFKGRATLTVDTSTSTAYMELSSLRSEDTSVYYCGRVPLYTSHGMDYWGQGTLVTVSS
VL: EIVLTQSPATLSLSPGERATISCRASESVDSYDINSMHWYQQKPGQAPRLLIYRASHLQSGIPARFSGSGSRTDFTLTISSLEPEDFATYYCQQSNEDPLTFGQGTKLEIK
notes: human IgG1 format; also called 02-VH2-VK3
Regarding B1, in test [1], the “Fold Change to Parental Apparent KD” value was 1.18 fold and the “Maximum CD8+ T cell Binding (MFI)” value was determined as 2880 MFI. Further, the Kd in test [2] worked out at 0.067 nM.

B2: humanized 02A01-VH1-VK4 (antibody, human IgG1, V domains shown)
VH: EVQLVQSGPEVVKPGATLKISCKASGYTFTDFTMHWVKQAPGKSLEWIGLVNPNNGGNIYNQNFKGRATLTVDTSTSTAYMELSSLRSEDTSVYYCGRVPLYTSHGMDYWGQGTLVTVSS
VL: EIVLTQSPATLSVSPGERATISCRASESVDSYDINSMHWYQQKPGQAPRLLIYDASNRATGIPARFSGSGSRTDFTLTISSVEPEDFATYYCQQSNEDPLTFGQGTKLEIK
notes: human IgG1 format; also called 02-VH1-VK4
B2: in test [1], the “Fold Change to Parental Apparent KD” value was found to be 0.89 fold and the “Maximum CD8+ T cell Binding (MFI)” value is 2050 MFI. In test [2], the Kd was determined as 0.051 nM.

B3: humanized 02A01-VH3-VK4 (antibody, human IgG1, V domains shown)
VH: EVQLVQSGAEVKKPGATLKISCKASGYTFTDFTMHWVQQAPGKGLEWIGLVNPNNGGNIYAEKFQGRATLTVDTSTSTAYMELSSLRSEDTSVYYCGRVPLYTSHGMDYWGQGTLVTVSS
VL: EIVLTQSPATLSVSPGERATISCRASESVDSYDINSMHWYQQKPGQAPRLLIYDASNRATGIPARFSGSGSRTDFTLTISSVEPEDFATYYCQQSNEDPLTFGQGTKLEIK
notes: human IgG1 format; also called 02-VH3-VK4
Take B3: in test [1], the “Fold Change to Parental Apparent KD” value was determined as 1.16 fold and the “Maximum CD8+ T cell Binding (MFI)” value stood at 1560 MFI. In test [2], the Kd came to 0.066 nM.

B4: humanized 02A01-VH2-VK4 (antibody, human IgG1, V domains shown)
VH: EVQLVQSGAEVKKPGATLKISCKASGYTFTDFTMHWVQQAPGKGLEWIGLVNPNNGGNIYNQNFKGRATLTVDTSTSTAYMELSSLRSEDTSVYYCGRVPLYTSHGMDYWGQGTLVTVSS
VL: EIVLTQSPATLSVSPGERATISCRASESVDSYDINSMHWYQQKPGQAPRLLIYDASNRATGIPARFSGSGSRTDFTLTISSVEPEDFATYYCQQSNEDPLTFGQGTKLEIK
notes: human IgG1 format; also called 02-VH2-VK4
With B4, in test [1], the “Fold Change to Parental Apparent KD” value was 0.89 fold and the “Maximum CD8+ T cell Binding (MFI)” value came to 2040 MFI. Also, the Kd in test [2] came out at 0.051 nM.

B5: humanized 02A01-VH6-VK4 (antibody, human IgG1, V domains shown)
VH: EVQLVQSGAEVKKPGATVKISCKASGYTFTDFTMHWVQQAPGKGLEWIGLVNPNNGGNIYAEKFQGRVTLTVDTSTSTAYMELSSLRSEDTAVYYCGRVPLYTSHGMDYWGQGTLVTVSS
VL: EIVLTQSPATLSVSPGERATISCRASESVDSYDINSMHWYQQKPGQAPRLLIYDASNRATGIPARFSGSGSRTDFTLTISSVEPEDFATYYCQQSNEDPLTFGQGTKLEIK
notes: human IgG1 format; also called 02-VH6-VK4
Take B5: in test [1], the “Fold Change to Parental Apparent KD” value stood at 1.12 fold and the “Maximum CD8+ T cell Binding (MFI)” value came out at 1690 MFI. For the same molecule, in test [2], the Kd is 0.064 nM.

B6: humanized 02A01-VH4-VK1 (antibody, human IgG1, V domains shown)
VH: EVQLVQSGAEVKKPGATVKISCKASGYTFTDFTMHWVQQAPGKGLEWIGLVNPNNGGNIYAEKFQGRATLTVDTSTSTAYMELSSLRSEDTAVYYCGRVPLYTSHGMDYWGQGTLVTVSS
VL: EIVLTQSPATLSVSPGERATISCRASESVDSYDINSMHWYQQKPGQPPRLLIYRASHLQSGIPARFSGSGSRTDFTLTISSVEPEDFATYYCQQSNEDPLTFGQGTKLEIK
notes: human IgG1 format; also called 02-VH4-VK1
B6: in test [1], the “Fold Change to Parental Apparent KD” value is 0.86 fold and the “Maximum CD8+ T cell Binding (MFI)” value amounted to 2810 MFI. The Kd in test [2] stood at 0.049 nM.

B7: humanized 02A01-VH4-VK4 (antibody, human IgG1, V domains shown)
VH: EVQLVQSGAEVKKPGATVKISCKASGYTFTDFTMHWVQQAPGKGLEWIGLVNPNNGGNIYAEKFQGRATLTVDTSTSTAYMELSSLRSEDTAVYYCGRVPLYTSHGMDYWGQGTLVTVSS
VL: EIVLTQSPATLSVSPGERATISCRASESVDSYDINSMHWYQQKPGQAPRLLIYDASNRATGIPARFSGSGSRTDFTLTISSVEPEDFATYYCQQSNEDPLTFGQGTKLEIK
notes: human IgG1 format; also called 02-VH4-VK4
Regarding B7, in test [1], the “Fold Change to Parental Apparent KD” value is 1.04 fold and the “Maximum CD8+ T cell Binding (MFI)” value was determined as 1640 MFI. In test [2], the Kd was 0.059 nM.
